Tests used:
BAM1 = biological target: T1, BAM1 (Arabidopsis thaliana, UniProt O49545); assay: competition binding of fluorescent Alexa488-CLE9 on bead-immobilized BAM1 (confocal imaging); confirmed by competitive photoaffinity labeling with […]ASA-CLE9 and […]ASA-[Ara3]CLV3
T1 construct: BAM1-HT: Met1 to Ile700 region (signal peptide, 22 LRRs, transmembrane domain), cytoplasmic kinase domain replaced with HaloTag; expressed in tobacco BY-2 cells, immobilized on HaloLink Sepharose beads
T1 sequence (O49545 1-700): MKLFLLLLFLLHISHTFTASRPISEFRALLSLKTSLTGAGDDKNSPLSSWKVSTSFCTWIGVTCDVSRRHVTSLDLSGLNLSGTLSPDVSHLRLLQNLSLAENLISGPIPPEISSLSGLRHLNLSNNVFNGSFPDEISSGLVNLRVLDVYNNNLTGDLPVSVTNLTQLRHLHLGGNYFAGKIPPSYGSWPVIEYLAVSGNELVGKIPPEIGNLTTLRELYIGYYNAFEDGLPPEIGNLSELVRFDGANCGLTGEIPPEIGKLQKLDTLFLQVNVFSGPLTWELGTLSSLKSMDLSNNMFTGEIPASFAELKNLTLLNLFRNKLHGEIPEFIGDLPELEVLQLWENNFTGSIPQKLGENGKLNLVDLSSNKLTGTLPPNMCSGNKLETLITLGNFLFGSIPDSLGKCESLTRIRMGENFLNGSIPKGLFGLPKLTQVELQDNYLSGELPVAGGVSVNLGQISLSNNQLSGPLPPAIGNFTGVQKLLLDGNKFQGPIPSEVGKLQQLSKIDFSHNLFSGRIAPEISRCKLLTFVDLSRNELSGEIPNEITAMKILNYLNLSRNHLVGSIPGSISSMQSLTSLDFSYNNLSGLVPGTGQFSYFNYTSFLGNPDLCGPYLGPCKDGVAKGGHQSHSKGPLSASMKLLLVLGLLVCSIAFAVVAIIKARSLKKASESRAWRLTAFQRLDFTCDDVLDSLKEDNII

[1] = biological target: CLV1 (Arabidopsis thaliana) (UniProt Q9SYQ8); conditions: cited from earlier work
[2] = biological target: BAM1-HaloTag (recombinant BAM1 in which the cytoplasmic kinase domain was replaced with HaloTag) (Arabidopsis) (UniProt O49545); assay: cross-linking; photoaffinity labeling as a3, in the presence of 10 μM NPD12704
[3] = biological target: BAM1-HaloTag (recombinant BAM1 in which the cytoplasmic kinase domain was replaced with HaloTag) (Arabidopsis) (UniProt O49545); assay: cross-linking; photoaffinity labeling as a3, in the presence of 100 μM NPD12704
[4] = biological target: BAM2 (Arabidopsis thaliana) (UniProt Q9M2Z1); conditions: cited from earlier work
[5] = biological target: BAM1 (Arabidopsis thaliana) (UniProt O49545); conditions: cited from earlier work

Sequence of BAM2 (Arabidopsis thaliana) (Q9M2Z1 23-636): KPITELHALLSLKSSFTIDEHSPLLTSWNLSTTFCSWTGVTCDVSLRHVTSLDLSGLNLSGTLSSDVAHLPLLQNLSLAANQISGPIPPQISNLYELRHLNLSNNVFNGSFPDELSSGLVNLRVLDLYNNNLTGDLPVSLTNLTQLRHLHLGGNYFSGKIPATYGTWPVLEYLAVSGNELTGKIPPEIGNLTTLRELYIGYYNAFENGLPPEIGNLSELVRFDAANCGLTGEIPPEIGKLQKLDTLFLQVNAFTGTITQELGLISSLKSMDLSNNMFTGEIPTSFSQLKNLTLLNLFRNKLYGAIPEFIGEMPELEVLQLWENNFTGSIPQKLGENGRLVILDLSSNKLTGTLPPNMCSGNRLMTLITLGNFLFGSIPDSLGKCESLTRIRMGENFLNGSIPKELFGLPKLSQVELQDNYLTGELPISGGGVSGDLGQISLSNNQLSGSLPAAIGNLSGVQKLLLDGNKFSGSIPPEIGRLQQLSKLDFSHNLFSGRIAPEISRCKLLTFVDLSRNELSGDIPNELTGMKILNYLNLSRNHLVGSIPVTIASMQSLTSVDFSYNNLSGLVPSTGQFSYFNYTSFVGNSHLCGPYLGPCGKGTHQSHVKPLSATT
Sequence of CLV1 (Arabidopsis thaliana) (Q9SYQ8 25-638): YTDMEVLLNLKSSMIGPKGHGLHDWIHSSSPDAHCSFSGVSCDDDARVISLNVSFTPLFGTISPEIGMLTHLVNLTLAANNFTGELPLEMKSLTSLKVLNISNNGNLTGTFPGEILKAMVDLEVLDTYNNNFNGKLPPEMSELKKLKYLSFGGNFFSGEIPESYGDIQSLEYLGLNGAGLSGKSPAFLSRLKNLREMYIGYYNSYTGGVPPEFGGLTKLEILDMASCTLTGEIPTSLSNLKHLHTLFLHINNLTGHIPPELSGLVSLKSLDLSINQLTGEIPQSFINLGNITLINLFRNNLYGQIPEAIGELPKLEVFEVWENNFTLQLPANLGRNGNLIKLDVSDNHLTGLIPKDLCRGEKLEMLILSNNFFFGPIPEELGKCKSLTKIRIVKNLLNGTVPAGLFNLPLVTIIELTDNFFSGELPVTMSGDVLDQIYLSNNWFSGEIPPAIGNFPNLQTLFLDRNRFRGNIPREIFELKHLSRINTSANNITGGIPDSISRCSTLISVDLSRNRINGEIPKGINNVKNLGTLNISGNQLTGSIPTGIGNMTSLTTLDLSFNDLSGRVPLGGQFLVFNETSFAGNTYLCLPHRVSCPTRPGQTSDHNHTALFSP

Compound: CNC(=S)Nc1cc(OC)c(OC)cc1Cc1nccc2cc(OC)c(OC)cc12 [NPD12704]
- IC50 (BAM1): 26000 nM

Compound: [Ara3]CLV3 (from UniProt Q9XF04)
- Kd [1]: 1 nM

Compound: [^125I]ASA-CLE9 (peptide)
- cross-linked band, percent of the control, with 10 μM NPD12704 (% of the control) [2]: 62
- cross-linked band, percent of the control, with 100 μM NPD12704 (% of the control) [3]: 33

Compound: CLE9 (from UniProt Q9FZE4)
- Kd [4]: 11.9 nM
- Kd [5]: 1.8 nM

Compound: [^125I]ASA-[Ara3]CLV3 glycopeptide
- cross-linked band, percent of the control, with 10 μM NPD12704 (% of the control) [2]: 46
